Measurements as given in the DeepSol protein solubility set.

Assay: soluble on expression in E. coli; label from the status in PepcDB or PDB records

Q: With “MGSDKIHHHHHHMRLRELELFLDLLATKSLTQSAERLGMSQPNASHLLSKLEEKGGSKLFDRSGKRLLPLSSALFLEPRAKEIVRLWREAQEELLDQSSLCGELRIAATHTIGEYLLPEILFEFRQTHPKVHLQARIHNTAECLEALLGGEVEQAFIEGETEDNQGVMKRFLRRDELAVVTSDEGLAARARYIDELFDRPWILREKGSGMRDAFLREVVDVKESFPLFLELDRSEAIKRLIQSHGALGCLSLLSVQREIKEGRLFRVEIIGREFWRHFYEVRREGSLGRLAKVFGEFVSVRLSESD” as the sequence, how does the “soluble on expression in E. coli” value read?
A: Its value is “not soluble”.

Q: Which “soluble on expression in E. coli” value does the source give for “MSLKKINFGIVGLGRLGRAHAENLAFKIPNANLLAVCSIDKSQVDEVQKAWNIPYGYTDFDEMLKNKELDAIFIASPSGFHCEQIEKALDAGFHVFSEKPLGLYLDDAVRAMKAVNSHPNQIFMLGFMRRYDKSYAYAKKKIEEGAIGKPVLVRCYGLDPAKALPSFLKFAKDSYSGGLFLDMAIHDIDLARWYLDSEADELWAIGGAYGHKEFDEINDAETGAAMVKFKNGTMALLVAGRNCAHGYHIETEIIGTEGTLRIGTTPDKNLVTVFDSRGVNKECAGGFLERFEDAYLAEVKEFVDCVLENRKPAVTVEDGVLSTIVGYACKESFETGELVKVNYEGYDKLIKEGHHHHHH” here?
A: The value was “soluble”.

Q: Which “soluble on expression in E. coli” value does the source give for “MYNSMDEVPVSLHASIDTGDGEFDMNALISNNAHILFIVLDSLRYDIALQEQTAGNTPNLNHYGQWTKCEAAGNFTWPSHHAMFSGFMPKPIDDTVNQTMLFFPKDIGLGRKGPKNAFAFDDATWIKSLENKGYQTICIGGVSFFNNRSGMGKVFPSMFKESYWHPRFACTVKESMDNQIHYIQKIMAERAGSQPVMMYINIDTIHYPNHFYVEGAAPGDTVETHAAALRYIDARIDGLLNIFRQTGGATFVIVCSDHGTCYGEDGKYFHSFNHPIVNTVPYMHFLLSGNHLEHHHHHH” here?
A: The value was “soluble”.

Q: For “MTRNAPPGQESTDLAWLVTPAKDLVENFSIDVLKALAGYLEVIRQESEDTDNQVDAATTYRLFDFQRACRIIQGSCAVYGRKVDHVYELTISVVDLVENKGQDDGNTGSRRGAGRRKNFNLGSTNYDLADIDSLKQEALANFEKTVKEEKKSIDAVRMVENAEVIESQYERKSCLVAKPTQFMFKLNYGQLNRTDEQILNAKSRPDVIGKVKDFEIKKSKVKHDQQILYSHDCYRGNLDQFTLPGARWMPDNKELAANFGVADLEVELDLEQEHEKISAYGPFKDPLSGREVVPPPRWFIEQEAVRQNQEIQSRATSRAITIAAKTLRDSQGFGSQPTRLSQPFVERHRQSNHLNDFLSFVEGRVNKNRPSTHLTTGLVDMFVDNFGSVMQNDEPNTSRRPDENYAPMDFDDDFGGGGDDDDDDYIRNLSRRDEKRAPAPWDELDKNHIIWYTGDENLPVVSKPVKKITKFQPKPAEMLARKQRREEKINKSRRDEFMETHDYLQDYYYWRSAARINPIKDWKIESLRTAILAEKKRRIKEKTAKIREARIQNMQRKRTARVIPVEQFEPVTEDIPTSNRRTLGAEYDDVVDEDLAAEVELSMFGGGFDDDEEDVRPRGERPPMAPNNLEFDALQTDFDIPPAEYVPLRFEDIDDAELNSVINLPGNLLIDKALPLLKKFAENRTDREQMAYEMAKAYEDVDVAVSTLQEHVDKWHSRMEPILEEGETRKEYDVHAVGRAVIGQYDIEGGTKRLLDLVMDRPWYEISRYFLSCLFMCNVGNVMVSEDMELPLEERINSMKITLLKRDMHCEMFKEAGALDA”, which “soluble on expression in E. coli” value is on record?
A: Its value is “not soluble”.

Q: With “MTAALPDLSFHPAWHAQLELAYARAGDATRPVTRRHAGPLRVQKHLYAEGPEVCQHILVHPPGGIAGGDSLAFDVRLGERAWAQLTSPGAAKWYRAACPARQTLEIHLEPGATLEWLPQESIVFAGAQAELETRIQLRGDARLFYWDMVALGRPASGERFASGHFVAALDIRRDDRLLWHERQRIDGGDRLLDSPIGLAGHPVLATLVASGEIDTDLLQRCRALPCAGRGNLSQLPGGLLVARCLADEALHARAWLIELWRLLRPALLGREAVPPRIWSTLEHHHHHH” as the sequence, how does the “soluble on expression in E. coli” value read?
A: The value was “not soluble”.

Q: Which “soluble on expression in E. coli” value does the source give for “MAHHHHHHMQHSLRGDFVTQRSTCFRTEKERKQKALNLIKNENNAEGYFNNLNFNLEYTEELNEQITSLDPKTSIQELTNIFNDLNENRKKNFHYLIEALENVSLILAHQNDIPEKHRKSTWCKIKHDLQCDFIKEHPNIHSNFDVFIRKIQSIDEFISYIKECIHSWNNFTNEKKLQYFPKVYETYQSDKICKENNYKKINNKTECNPKESIKNESIPKECIPNENMKKECVPNGCMKKQCVPKECMKKECVTNGHMKKQCVPNECMKKQCVPKECMKKECVPNGCMKKECTPNKNDKNVNRTDINNQNKTNEKLCDKKEKKRLPSK” here?
A: Its value is “soluble”.
